Data set [1] has as its target T1, MBD2b (MBD2 lacking the N-terminal 149 residues) (UniProt Q9UBB5 150-411). Nature of the data set: EMSA; 70 pmol each, equimolar; 5 mM Mg2+; 1:1 stoichiometry; EMSA: 50 mM Tris, 5 mM MgCl2, 10 mM DTT, pH 7.5, 5 min, RT, 10 ul, 12% gel, ethidium bromide; protease protection: 50 mM Tris, 5 mM MgCl2, pH 7.5, 10 min RT with DNA, then trypsin 20 min 37 C. The conditions noted are these: protein: recombinant; tags: 6His; label: none (ethidium bromide stain); blunt.

Data set [2] has as its target T1, MBD2b (MBD2 lacking the N-terminal 149 …). Nature of the data set: EMSA; 70 pmol each, equimolar; 5 mM Mg2+; EMSA: 50 mM Tris, 5 mM MgCl2, 10 mM DTT, pH 7.5, 5 min, RT, 10 ul, 12% gel, ethidium bromide; protease protection: 50 mM Tris, 5 mM MgCl2, pH 7.5, 10 min RT with DNA, then trypsin 20 min 37 C. The conditions noted are these: protein: recombinant; tags: 6His; label: none (ethidium bromide stain); blunt.

T1 sequence (Q9UBB5 150-411): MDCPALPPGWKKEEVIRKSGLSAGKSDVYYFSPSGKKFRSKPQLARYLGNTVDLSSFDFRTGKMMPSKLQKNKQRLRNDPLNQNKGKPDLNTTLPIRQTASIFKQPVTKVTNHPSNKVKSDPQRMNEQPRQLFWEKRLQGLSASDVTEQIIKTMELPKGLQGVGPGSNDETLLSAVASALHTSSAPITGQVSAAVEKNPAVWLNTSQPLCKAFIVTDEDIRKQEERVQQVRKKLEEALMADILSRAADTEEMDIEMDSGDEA

B1: HTRA1 promoter 12-mer, methylated (dsDNA)
DNA 1: CTCAGCGAGAGA
DNA 2: TCTCTCGCTGAG
modifications: 5-methyl-dC at position 6 of the reverse strand (TCTCT-5mC-GCTGAG); forward-strand methylation not visible in the material (line truncated), probably 5mC at position 6
Regarding B1, the binding result in data set [1] was “binds”.

B2: HTRA1 promoter 12-mer, unmethylated (dsDNA)
DNA 1: CTCAGCGAGAGA
DNA 2: TCTCTCGCTGAG
Regarding B2, in data set [2], the binding result is “no binding”.

The record behind these values is article PMC4936022, “Epigenetic silencing of serine protease HTRA1 drives polyploidy”.
